# Results reported in a protein production outcome set (Wang et al. 2014).
# Assay: label from the status in PepcDB records
# 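Further: failed if final PepcDB status was selected cloned or expressed and not failed if soluble or beyond.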
row,Sequence,protein production
1,MKRSLRVGSVAGIGIFLHWTFLLLVAAIFAYYYVQSQSLGAALSGMGLILGVFVCVILHELGHALTARRFGVPTRSITLYPIGGLARLERIPSEPMKEFWIAIGGPAVNVVIAFALALVLLVTGGTLAPVALEAPGSHALASLMWINAVLAVFNMLPAFPMDGGRVLRALLALRWDYAQATQTAANVGQGMAVLFGLIGIMTWNPVLLFIALFVYVGAQQESKQAMYRAFTEGTPVREAMVTRFATLTVDDTLDDAVDALLAGTDHDFPVLEAGTVVGLLRRKQLIQALSEHGRDTPVAEVADADCFTTAPSAPLDEVFQQMNARSCSTVPVVDGGQLVGLLTLENVGELIMVSSALETRSHSRVPRDQLSEAPLRERPDGAASSGAPPVP,failed
2,MKRTGILLVNLGTPKDSSKTEVRKYLKTFLSDRRVIKIHPIIWKPILNGIILNIRPKKSAKLYQKICTENGFPLLEYTEKQMENLKNICPEVEVTIGMSYSEPSIETALDTLLSKEIEELNVIPMYPQYSGTTVGSVFDSVMNYFIKSDRIVDIKFIRSFYNNPQYIDYFSKKINEALNESPIDAIVFSYHGIPMSYVKDGDNYPKECTKTTKLIMDKLGDIRYYQTYQSKFGPSEWLKPATDDTLKKLPSKGIKNILIVAPGFVVDCLETIEELEHENRNYFLENGGEVYKYVHPFNGDIEFAKLVKDIISL,failed
3,MKRWQMEWLLVSVALVWGANYTIGKYGVAYMSSIQFNSLRFLVASPVLLLITFLMERSLRIDRKDWLRLVAVGIVGTTMYQTMFMLSVKYTSATNASLLIAMSPIFTGILAVLHKQERFSMKVQIGSIVAFIGAAFVLLTGHTGGTTYEYAWLGNIIGLVAAIAWGWYPILAQPLITKYSAMRVTSWSTLIGIVPLVVYCLFNVNTLTWPVDMPSWGSLAYSIVFATIFGLAMWYVGISKIGSTKVMVYMYLVPLFAVIFAAVTIGEQINMMQLVGGLIIFIGLYVVKKGGIQKPALNLKKVS,failed
4,MKRYRTLLFDVDDTILDFQAAEALALRLLFEDQNIPLTNDMKAQYKTINQGLWRAFEEGKMTRDEVVNTRFSALLKEYGYEADGALLEQKYRRFLEEGHQLIDGAFDLISNLQQQFDLYIVTNGVSHTQYKRLRDSGLFPFFKDIFVSEDTGFQKPMKEYFNYVFERIPQFSAEHTLIIGDSLTADIKGGQLAGLDTCWMNPDMKPNVPEIIPTYEIRKLEELYHILN,not failed
5,MKSGERSAVADRAQQIMSAARELLDAEGPDALSMRRIAERVGIRAPSLYKHFADKAALVAGLQAQGLTLLAEVQEAAEAEIGADPPLLVLGYAYRRHALASPHLYRITHGWPLARTALPEGLEDRAALPLARAVHGDINIARSFWAFAHGMVVLELDGRFPPGADLDVAWRTGCEAFTQAIRNRPHGSTA,not failed
6,MKSIVIYESVHHGNTEKVAKAMVEELNAECIRAQDLNLEKLKDYDLIGFGSGIFYNKFHKNILKLVGNIGKVNGKKAVVFSTSGQGRESSNKSLRKQLEEKGFKVIGSFACKGFDTFGPLKLLGGIGKGRPDQKDIEEAKKFVLGLEKNLLEHHHHHH,failed
7,MKSLATDMTEGNVSKHLIKFAIPLILGNLFQLTYNASDSIIVGRFVGKNALAAVGIANPIMNIVMFFIVGICLGASVLMSEYYGAGNVKKLRREISTTVIAGFIFTVLIIIICVIFTEPILGLVKTPKEIIPEAAIYLRIIFISLIFTFFYNIYAAALRSIGDSKNPLLFLMISAVLNVVMDIVFVVWLKMGVAGSAIATSVAEMMSCVFCIVYVHFKIPILKFSFKDMVIDKGLLRSTVNYSWATAMQQTCLYVGKFMVQGAVNPLGVNSIAAFNAVNRVDDFAFAPEQSISNAMTTFLAQNRGANKYKRIKKGFLTGMKLETLYWCILVGIVYLGSTAIMKLFVSGSEVKVISIGSYYLKLMAFFYLLPSWTNGVQGYFRGMGDMKITLRSTFSQIVGRVAFSYILAPRIGMVGIAFSCLGGWIVMLAYEVPCLIKYRRNFNNKLSESSI,failed
8,MKSNDLVDQIMAQVIAKVSEHAPASSAQPSHAQPSYKQRDTAMAEKTCSLTEFVGTAIGDTVGLVIANVDSALLDAMKLEKRYRSIGILGARTGAGPHIMAADEAVKATNTEVVSIELPRDTKGGAGHGSLIIFGGDDVSDVKRAVEVALKELDRTFGDVYANEAGHIELQYSARASHALEKAFGTPLGRSCGVIVGAPASIGVLMADTAVKSANVDVVAYSSPAQGTSFSNEVILVISGDSGAVRQAVISAREIGKTVLATLGAEPKNDRPSYI,failed
9,MKSNRLIKRLDWYIIKKFLGTYVFAIALIISIAVVFDFNEKMDKLMEHEAPWDKIIFEYYMNFIPYFSNLFSPLFVFIAVIFFTSKLAENSEIIAMFSTGMSFKRMMRPYMISAAIIAAATFMMSSFIIPKGSVTRLNFEDKYIKPKKVNSVRNVQLEVDSGVIAYIDNYNDGMKTGNRFSLDKFVDKKLVSHLTARRITYDTTTVNKWTIHDYMVRELDGLKEKITKGDRIDSIINMDPSDFLIMKNQQEMLTSPELSEYIEKQKRRGFANIKEFEIEYHKRIAMSFASFILTIIGVSLSSRKTKGGMGLHLGIGLGLSFSYILFQTITSTFAINGNVPPAIAVWIPNILYAGIAFYLYQKAPK,failed
10,MKSSNIGGQAVMEGIMMRHKDKYAIAVRRPDKEIELKVEDYKCTFGKAAFLKWPIIRGVVSFVDGLVVGTKCLMYSAEIAGDEEDEKEAAKNATLTEEELSAKKAKEAKQFQ,not failed
11,MKSSYGSSSNDLHAFVNEIKGEIQLSNINLDPYSFVSPSAYDTAWLSMIEEDINVDDNELKPMFQGCLDWIMCNQNAREGFWMNSTSYTTVADGRDEDGEKDMCILTSTLACVVALQKWNIGCFHLHKGTRYIERNTEMIIGKYINEEGSYPRWFAIKFTGILELAQKLGLHFVFSSRCIEMIKGMFYQRQEIIQREKLVHDCNYKPLLAYLEVLPSKLYVTNQEDIIVKSLDSMDGSLFQSPSATASAFMLTRNTKCLAYLQNLVQKCPNGVPQKYPLNEDLIKLSMVNLIESTGLGEFFGIEIEHVLEQVYSRYEEKDFERMPMSYLADQLHKDSLAFRMLRMHGRDVSPRSFCWFLNDQETRNHLERNIDSFLLVILSVYRATDLMFPGEHDLQEAREYTRNLLEKRRSIKEKMVPIYLNKIMHELSTPWIARLKHLDHRMWIEDKNSNVLSMEKASFLRLHSSYSDKLTHLAARNFEFQQAKYCRELEELTMWVKKWGLSDIGFGREKTTYCYFATVTSLPYEYAIKFGKLAAKTAILITIADDFFDEKGSFNDLEGLTKAVLRWEGEELKSYGNIIFRALDDIVRETANTCRTHHKTDIIVHLRNIWGETFESWLREAEWSKKGHTSSMDEYIRNGMISIAAHTIALSISCLMEPCFPHNKLKPGNYDSITTLLMIIPRLLNDLQSYQKEQEQGKMNSVLLHMKNHPGLEIEDSIAHIEKIIDSKRKEFLEHVLVDGLSDLPKPCKEIHMSCCKVFEMFFNKKNRYDSNTEMLHDIKKALYDPINVYELSEMEPMPLMAHGDEYMILPLLLNSLPNILEFKRKDGYGAMKTSMCFGRSYRVNKRVMASQLDDQHKPLKIVASQRKPVPMMQSIFAPCFY,failed
12,MKSVNYRLLFSKSIFLGIFFLNIVFAQAQNEKKYIKEGDAAAASGDSKTALNQYLQAYKLNQTNASLNYKIGVQYLKSEYPHKCLSYFESAYKLDPKVDKDILFNLGVAYQENHRFDEAADYFTKYRATLDPSNPFLKKIDRRLYECANGKEFMEKPVDVKIQSVSSVVNSPYSDFAPVISADEKVMIFTSRRPGSTGGSFDENGQYYEDIYISKKIAGQWGAPQNIGSNINTEFHDASIALSADGSELFIYKDDNAGDIYYCKQRADGSWSKPLPIEGSVNSRTYRENAAAVSPDGNTLFFASNREGGYGKLDLYMVKMNDKGFWGKPINLGPTINTEVDDESPFMDFDGMTLYFSSRAHKGMGGLDIFKTYYDSTKGDWTEPINMGYPINSADDDINFVLSGDGGHGYYASAKDDGVGEKDIYMISMPPREDRTKLIEKMKAMHLDAPIADVVPAPTVAAVLLPITIKGVVKDAETGKPMQTVVQLTDENGKLIAEKNVGPDGLYSFTVKNEAATSYTLSTEKEEFGFINKTFSVPGEKTSSQEITQNLALKKLAVGNVYVLRNIYFDFDKATLKSASNKELNNLLQLLKQNPEMEIEISGHTDSKGSDEYNRVLSRKRAQAVVNWLVSKGISKNRLKFEGYGESRPLASNDDELEGRELNRRTEFKILKK,failed
13,MKSYQPKSLLNDLQYYITPPHDCSYLDNKSARMVFLDPIHRIDVVTLSELSRVGFRRSGDFVYRPECHLCRQCLSCRVPVHDFNMNSLQKKAWKRNQDLRMSIVPTHAATSVHYQLYERYINERHADGDMFPPSLDQFEKFLVHSCTESFFLELWKDDRLICVSTCDLMDDGLSAVYTFFDPDENRRSLGVFAILKQLEYVKSIDLDYLYLGYWVPHSQKMNYKSQYIPLELLLDGQWRRLNRALSQEEISQLGESLMTILPSEWNSMIIKLEHHHHHH,failed
14,MKSYRKELWFHTKRRREFINITPLLEECVRESGIKEGLLLCNAMHITASVFINDDEPGLHHDFEVWLEKLAPEKPYSQYKHNDTGEDNADAHLKRTIMGREVVIAITDRKMDLGPWEQVFYGEFDGMRPKRVLVKIIGE,not failed
15,MKTDVRWATFNIRYDNPQDSLNNWQYRKDRVCQFIKDHELDIVGMQEVLHNQFQDLRAGLPEYDGIGVGRDDGKTAGEYAPLFYRKDKYEVLDSNTFWLAENPDSVGMMGWDAVCVRIATWAKFKDKATGKIFMAVNTHFDHVGEEARRQSALLIIRKIKEIVGERPAVVTGDFNVTDASDAYETITTNEFVMKDAYKTAARVTGVDYTFHDFARIPAEDCEKIDFIFVTPQVLVKSCEIPAEVPEALLSDHNPQLADLELEHHHHHH,not failed
16,MKTEKEKREEEEEDLRPFRIHAYSKEELAMLYNPTYCISNAIYTLAAWIRHNKALKGELEKVGYNKYRRTFTPLEVKVLVKYLGEP,failed
17,MKTFIIGISGVTNSGKTTLAKNLQKHLPNCSVISQDDFFKPESEIETDKNGFLQYDVLEALNMEKMMSAISCWMESARHSVVSTDQESAEEIPILIIEGFLLFNYKPLDTIWNRSYFLTIPYEECKRRRSTRVYQPPDSPGYFDGHVWPMYLKYRQEMQDITWEVVYLDGTKSEEDLFLQVYEDLIQELAKQKCLQVTA,failed
18,MKTKPQAPHVDFYEKSELLHFLDCASKHENPQAFMFFRLLAFTGLRRGEALALQWSDINFETNELTVNKTQAVGKRWRTIIQTPKTNTSYRTIVLDPDTAQWLHKWKMTQARQCFELGFNANDPSQLVFTNQQNKLMSPSTVNYFNWSICKKYGLRHIKIHAFRHTFCTLAFEAHAGINEVSKTLGHADLKITEQIYLHVTKKQKNETASKLARYMSELLEHHHHHH,not failed
19,MKTLEKVNYKGFIWPLAVGIVLWLITPWRPGGLSVQAWEMFAIFVATIVGCITKPLPIGGTTLLGMVVTVLVGLAPVKDVVNSKGVVIQTGILSSFGNSAAWLIAMAFIMAHGISKTGLGNRVAYVMIEKFGKRSIGIGYAITGLELMMGALIPSNSARTGGVTWPVVESISKSYDSKPNDPSRKKIGAYLDFMAFHANILSTALFITGAAPNLVAQQMAAQKGYQMSWVSWFWAALVPVLVATVIIPLVIYKMYPPEVKETPNAKNWADDKLKEMGPISKPEKIMATVFCLAILLWVLSGFFKIPQLDSAFVAFLAVTLLLITGVLSMEDALHETGAWNILIWLSILIFMAGKLISYGFIAWFAKFIQSEVHGINWGLVLVVLILLMFYTHYFFASGTAHMTALYLPFLTVATAMGAPLGLSAMLLAFTGVINASTTHYANGPASILATTGYVKQSEWWKMNFILGLIYMVIFGIVGTIWMKIIGIW,failed
20,MKTLYDLPIVLRNLPEDLVLEKPLPEVSVTIRAYPEILNNLTKEQISLWIDATGKAVGEHTVKIYWQLPAGIEMVSIPDVTYTLKAKEDPLEHHHHHH,failed
21,MKTMNYSLIRILFALVIGLVLVLWPNTAASYIVITIGVAFLIPGVISLFSFFGRKRSEHEPAPRFPIEGIGSLLFGLWLIVMPEFFADVLMFLLGFILIMGGVQQIASLSMARRWTPVPGIFYLVPSLILIAGVIALFNPTGVRNTAFIIIGISSLVYSLSELINWFKFARRRPKTPVTPHDEDIEDAKIIE,failed
